# Measurements taken from US20240199724A1 (THELPER, published 2024).
# Where a chain is given by its changes, count along the chain named. Where “and” joins values, the source holds several entries; their conditions need not be identical. Equal values may be shown once.
# T1: US28 of HCMV strain TB40/E with C-terminal 6His tag, on CHO cells (human cytomegalovirus (HCMV) strain …, UniProt P69332 1-354)
# T1 construct: also called TB40/E form of US28
# T1 chain: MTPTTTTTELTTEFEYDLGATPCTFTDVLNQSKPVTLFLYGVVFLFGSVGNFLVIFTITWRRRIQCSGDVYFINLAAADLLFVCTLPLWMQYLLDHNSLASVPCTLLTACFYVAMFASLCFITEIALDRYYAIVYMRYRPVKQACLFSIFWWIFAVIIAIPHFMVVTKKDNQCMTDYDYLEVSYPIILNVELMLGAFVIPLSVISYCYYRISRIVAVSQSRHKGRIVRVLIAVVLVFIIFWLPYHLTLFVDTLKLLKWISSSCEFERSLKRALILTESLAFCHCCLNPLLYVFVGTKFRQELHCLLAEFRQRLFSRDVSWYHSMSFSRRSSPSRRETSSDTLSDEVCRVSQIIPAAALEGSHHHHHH
# T2: mutated US28 (artificially created mutated strain) with C-terminal 6His tag, on CHO cells (human cytomegalovirus (HCMV), …, UniProt P69332 1-354)
# T2 construct: also called CHO-mutated strain; mutated form of US28
# T2 chain: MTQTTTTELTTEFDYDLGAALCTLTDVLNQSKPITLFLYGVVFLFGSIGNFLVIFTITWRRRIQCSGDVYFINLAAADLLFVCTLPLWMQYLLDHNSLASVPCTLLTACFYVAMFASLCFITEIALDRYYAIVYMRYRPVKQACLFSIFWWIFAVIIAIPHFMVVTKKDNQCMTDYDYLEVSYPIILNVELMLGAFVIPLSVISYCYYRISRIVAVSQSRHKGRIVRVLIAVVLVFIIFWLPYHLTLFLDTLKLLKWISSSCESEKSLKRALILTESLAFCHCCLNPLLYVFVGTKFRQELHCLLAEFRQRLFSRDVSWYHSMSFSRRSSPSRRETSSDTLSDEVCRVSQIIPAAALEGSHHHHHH
# T3: US28 of HCMV strain DB with C-terminal 6His tag, on CHO-US28-A1 cells (human cytomegalovirus (HCMV) strain DB, UniProt P69332 1-354)
# T3 chain: T1 chain with T8A, E15D, L18E, G19A, T24V, V49I, D170N
# T4: US28 of HCMV strain Ad169, on infected MRC-5 cells (human cytomegalovirus (HCMV) strain …, UniProt P69332 1-354)
# T4 sequence: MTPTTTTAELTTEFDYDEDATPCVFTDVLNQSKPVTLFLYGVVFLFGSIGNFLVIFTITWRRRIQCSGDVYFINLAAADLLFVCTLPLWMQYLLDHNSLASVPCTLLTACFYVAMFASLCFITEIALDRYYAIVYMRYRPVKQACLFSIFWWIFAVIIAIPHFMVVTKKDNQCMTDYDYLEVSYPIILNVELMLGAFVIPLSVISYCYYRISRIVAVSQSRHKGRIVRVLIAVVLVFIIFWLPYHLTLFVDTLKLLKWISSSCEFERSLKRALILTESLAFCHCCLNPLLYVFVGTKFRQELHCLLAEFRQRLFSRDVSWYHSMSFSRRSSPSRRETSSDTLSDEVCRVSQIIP
# B1: US28-13-5G6-1D3 antibody (antibody)
# heavy: EVKLVESGGGLVQPGGSLRLACATSGFTFTDYYMSWVRQPPGKALEWLGFIRSKANGYTTEYSASVKGRFTISRDNSQSILYLQMNTLRSEDSATYYCARDERRTAWLAYWGQGTLVTVSAAKTTPPSVYPLAPGSAAQTNSMVTLGCLVKGYFPEPVTVTWNSGSLSSGVHTFPAVLQSDLYTLSSSVTVPSSTWPSETVTCNVAHPASSTKVDKKIVPRDCGCKPCICTVPEVSSVFIFPPKPKDVLTITLTPKVTCVVVDISKDDPEVQFSWFVDDVEVHTAQTQPREEQFNSTFRSVSELPIMHQDWLNGKEFKCRVNSAAFPAPIEKTISKTKGRPKAPQVYTIPPPKEQMAKDKVSLTCMITDFFPEDITVEWQWNGQPAENYKNTQPIMDTDGSYFIYSKLNVQKSNWEAGNTFTCSVLHEGLHNHHTEKSLSHSPGK
# light: DVLMTQTPLSLPVSLGDQASISCRSSQSIVHSNGNTYLDWYLQKPGQSPKLLIYKVSNRFSGVPDRFSGSGSGTDFTLKISRVEAEDLGVYYCFQGSHVPTWTFGGGTKLEIKRADAAPTVSIFPPSSEQLTSGGASVVCFLNNFYPKDINVKWKIDGSERQNGVLNSWTDQDSKDSTYSMSSTLTLTKDEYERHNSYTCEATHKTSTSPIVKSFNRNEC
# B2: bivalent VUN100 (VHH)
# chain: EVQLVESGGGLVQPGGSLRLACAVSGPGLIFKFTGVAWYRRQVPGAKRGLVALITGDGATRYGDSVKGRFTVSRDIAAKRVYLEMNDLRSEDTAVYYCKTGEYWGQGTQVTVSSGGGGSGGGGSGGGGSGGGGSGGGGSGGGGSEVQLVESGGGLVQPGGSLRLACAVSGPGLIFKFTGVAWYRRQVPGAKRGLVALITGDGATRYGDSVKGRFTVSRDIAAKRVYLEMNDLRSEDTAVYYCKTGEYWGQGTQVTVSS
# notes: also called VUN100b; BvVUN100
# B3: US28-14-4E4-1E8 antibody (antibody, mouse IgG1, kappa, V domains shown)
# VH: EVKLVESGGDLVKPGGSLKLSCAASGFTFSSYAMSWVRQTPEKRLEWVASISSGGRTYYPDSVKGRFTISRDNARNILYLQMSSLRSEDTAIYYCARGGTRHSYGNGFDYWGQGTTLTVSS
# VL: QIVLSQSPTIMSASPGEKVTMTCSASSSVSYMHWYQQKSGTSPKRWIYDSSKLASGVPARFSGSGSGTSYSLTISSMEAEDAATYYCQQWTSNPPITFGAGTKLELKR
# B4: US28-13-1H3-1A10 antibody (antibody, mouse IgG1, kappa, V domains shown)
# VH: EVKLVESGGVLVKPGGSLKFSCAASGFTLSSHALSWVRQTPEKRLEWVASISSRGRTYYPDSVKGRFTVSRDNARNILYLQVSSLRSEDTAMYYCTRGGTHYSYGNGFDFWGQGTTLTVSS
# VL: B3 VL with S5T, T9A, A25V, S50T, S76T, T91S, S92N
# notes: also called 14-1H3-1A10; 14-IH3-IA10
# B5: US28-13-1C10-1C10 antibody (antibody, mouse IgG1, kappa, V domains shown)
# VH: B4 VH with L29F
# VL: B3 VL with S5T, T9A, A25V, S50T, S76T, T91S, S92N
# B6: US28-13-5G6-1D3 antibody (antibody, V domains shown)
# VH: EVKLVESGGGLVQPGGSLRLACATSGFTFTDYYMSWVRQPPGKALEWLGFIRSKANGYTTEYSASVKGRFTISRDNSQSILYLQMNTLRSEDSATYYCARDERRTAWLAYWGQGTLVTVSA
# VL: DVLMTQTPLSLPVSLGDQASISCRSSQSIVHSNGNTYLDWYLQKPGQSPKLLIYKVSNRFSGVPDRFSGSGSGTDFTLKISRVEAEDLGVYYCFQGSHVPTWTFGGGTKLEIKR
# notes: also called US28-13-5G6-1D3 Ab; US28-13-5G6-1D3 rAb
# B7: monovalent VUN100 (VHH)
# VHH: EVQLVESGGGLVQPGGSLRLACAVSGPGLIFKFTGVAWYRRQVPGAKRGLVALITGDGATRYGDSVKGRFTVSRDIAAKRVYLEMNDLRSEDTAVYYCKTGEYWGQGTQVTVSS
# notes: also called Mv VUN100; VUN100 Ab
# Key:
# [1] = target: US28 of HCMV strain DB with C-terminal 6His tag, on CHO-US28-A1 cells (human cytomegalovirus (HCMV) strain DB) (UniProt P69332); assay: flow cytometry, secondary antibody alone on CHO-US28-A1 cells
# [2] = target: Bio-Peptide-2 (human cytomegalovirus (HCMV), 4D variant); assay: ELISA (FIG. 5)
# [3] = target: T1, US28 of HCMV strain TB40/E with …; assay: flow cytometry, CHO cells expressing DB or TB40/E US28 (FIG. 21C)
# [4] = target: T1, US28 of HCMV strain TB40/E with …; assay: flow cytometry, CHO cells expressing DB or TB40/E US28 (FIG. 21D)
# [5] = target: T1, US28 of HCMV strain TB40/E with …; assay: flow cytometry, CHO cells expressing US28 of strain TB40/E
# [6] = target: T2, mutated US28 (artificially created …); assay: flow cytometry, CHO cells expressing the mutated US28
# [7] = target: T2, mutated US28 (artificially created …); assay: flow cytometry, CHO cells expressing the mutated US28 (FIG. 21B)
# [8] = target: T3, US28 of HCMV strain DB with C-terminal …; assay: flow cytometry, CHO cells expressing US28 of strain DB
# [9] = target: T3, US28 of HCMV strain DB with C-terminal …; assay: flow cytometry, CHO-US28 (DB) cells against control CHO cells, background subtracted
# [10] = target: T3, US28 of HCMV strain DB with C-terminal …; assay: flow cytometry
# [11] = target: T3, US28 of HCMV strain DB with C-terminal …; assay: flow cytometry, 1:50 (w/v)
# [12] = target: T4, US28 of HCMV strain Ad169, on infected …
Molecule,% change in absolute level of binding between the DB and TB40/E forms of US28 [3] [%],percentage retention of binding activity between the DB and TB40/E forms of US28 [4] [%],percent of cells bound [5] [%],percent of cells bound [6] [%],percent of cells bound [8] [%],Binding specificity comparative to the specificity displayed by VUN100 [9] [ratio],further results
Goat anti-mouse IgG-Alexa 488 (antibody),,,,,,,percent of cells bound [1]: 1.63%
B1,,,,,,,fold binding against BSA control [2]: 27 fold and 28 fold
B2,> 40,≤ 60,5.2,2.58,9.24,,fold binding against control CHO cells [7]: 2.43 fold
B3,,,,,,4.6,
B4,,,,,,2.29,
B5,,,,,,1.74,
B6,< 10,~100,18.2,12.9,16.6,1.65,fold binding against normal CHO cells [10]: > 21 fold; fold binding against US28 negative CHO cells [11]: 15 fold; fold binding against uninfected cells [12]: ~16 fold; fold binding against control CHO cells [7]: ~15 fold
B7,> 35,≤ 60,4.33,1.41,6.91,,binding result [6]: no binding (tested: 50 µg/ml); specificity (fold binding against control CHO cells) [7]: < 1 fold
